Assay results published in publication PMC1891314.

Legend:
[1] = target: OD_(CN54)+-Fc (outer domain of HIV-1 CN54 gp120, residues 251-481, with V295N+A394T, fused at its C terminus to the Fc domain of human IgG1) (HIV-1 CN54 | human); assay: SDS-PAGE under non-reducing conditions; purified Fc fusion proteins under non-reducing conditions; data not shown
[2] = target: gp120_(CN54)+-Fc (HIV-1 CN54 gp120 with V295N+A394T, fused at its C terminus to the Fc domain of human IgG1) (HIV-1 CN54 | human); assay: as above

## OD_(CN54)+-Fc (outer domain of HIV-1 CN54 gp120, residues 251-481, with V295N+A394T, fused at its C terminus to the Fc domain of human IgG1) (Fc fusion)
[1]
  stoichiometry N: 2

## gp120_(CN54)+-Fc (HIV-1 CN54 gp120 with V295N+A394T, fused at its C terminus to the Fc domain of human IgG1) (Fc fusion)
[2]
  stoichiometry N: 2
